Reference: patent US20250195679A1, “ANTIBODY-DRUG CONJUGATE AND USE THEREOF” (SHANGHAI HUAOTA BIOPHARMACEUTICAL CO., LTD., priority 2022, published 2025)

Assays:
[1] = target: T1, Human CD73 (Homo sapiens, UniProt P21589); assay: Inhibition of enzymatic activity of soluble recombinant CD73 protein (AMP/ATP, CellTiter-Glo); format: biochemical; design: purchased ACRO CD3-H52H7-100 μg; conditions: FIG. 3; the three samples compared with each other
T1 sequence (P21589 27-547 limits assumed): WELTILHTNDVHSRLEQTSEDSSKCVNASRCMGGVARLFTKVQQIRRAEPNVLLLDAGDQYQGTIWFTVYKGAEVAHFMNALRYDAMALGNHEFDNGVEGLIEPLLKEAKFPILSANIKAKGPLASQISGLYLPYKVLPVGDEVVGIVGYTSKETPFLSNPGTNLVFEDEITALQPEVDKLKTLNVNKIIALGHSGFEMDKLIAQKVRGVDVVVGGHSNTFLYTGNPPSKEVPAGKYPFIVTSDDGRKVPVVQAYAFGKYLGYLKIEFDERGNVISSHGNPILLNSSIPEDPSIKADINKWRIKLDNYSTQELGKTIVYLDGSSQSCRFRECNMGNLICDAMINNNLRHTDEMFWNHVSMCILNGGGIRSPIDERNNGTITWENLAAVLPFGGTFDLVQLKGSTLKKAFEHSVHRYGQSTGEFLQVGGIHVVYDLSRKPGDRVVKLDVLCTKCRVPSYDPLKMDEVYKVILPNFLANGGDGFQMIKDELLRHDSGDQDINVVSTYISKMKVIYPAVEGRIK
Experimental: The inhibitory effects of the antibody-drug conjugate 1 and the antibody-drug conjugate 2 prepared in Example 1 and the 900698 naked antibody on the enzymatic activity of a recombinant CD73 protein (ACRO, #CD3-H52H7-100 μg) were assayed. The specific procedures were as follows: The series of CD73 antigen-binding proteins were diluted to 120 μg/mL with TM Buffer (ROCKLAND, #MB-059), followed by a 3-fold dilution across 10 gradients. The diluted proteins were each added at 25 µL/well to a 96-well plate. The recombinant CD73 protein was then diluted to 0.3 μg/mL with TM Buffer (ROCKLAND, #MB-059) and added at 25 μL/well to the 96-well plate. The mixture was mixed uniformly. Then, diluted AMP and ATP were mixed at a ratio of 1:1, and the mixture was added at 50 μL/well to the above 96-well plate. The resulting mixture was allowed to react for 15 min. Finally, a CellTiter-Glo® substrate was added to a CellTiter-Glo® buffer. The mixture was mixed uniformly and equilibrated to room temperature, and then added at 100 μL/well to the wells to be tested. The resulting mixture was allowed to react at room temperature for 10 min and then subjected to full-wavelength detection.
The results for the inhibition of the enzymatic activity of the soluble recombinant CD73 antigen protein (ACRO, #CD3-H52H7-100 μg) by the antibody-drug conjugate 1, the antibody-drug conjugate 2, and the 900698 naked antibody are shown in FIG. 3 (represented as 1-3 in FIG. 3, respectively).

[2] = target: T1, Human CD73; assay: Biacore binding kinetics with human CD73 protein; design: purchased ACRO Biosystems CD3-H52H7; conditions: Human CD73, Biacore T200, protein A chip, 25° C., 1:1 binding model
Experimental: The binding kinetics of the antibody-drug conjugate 1 and the antibody-drug conjugate 2 prepared in Example 1 and the 900698 naked antibody with a human CD73 protein (manufacturer: ACRO Biosystems, Cat. No. CD3-H52H7) and a monkey CD73 protein (manufacturer: Novoprotein, Cat. No. CI21) were assayed using Biacore (GE, model: T200), with an assay buffer of HBS-EP+ (pH 7.4) and a protein A chip (manufacturer: GE, Cat. No. 29-1275-56).
The temperature for the sample compartment and the flow path was set to 25° C. The protein A chip captured each antigen-binding protein as a ligand, fixing about 100 RU. The human CD73 protein was diluted with the assay buffer to a series of concentrations of 50 nM, 25 nM, 12.5 nM, 6.25 nM, 3.12 nM, and 1.57 nM, serving as analytes, and the assay buffer was used as a 0 concentration control. At a flow rate of 30 μL/min, association was conducted for 120 s, and dissociation was conducted for 600 s. Glycine (10 mM, pH 1.5) was used for regeneration at a flow rate of 50 μL/min for 60 s in a multi-cycle kinetic assay. A 1:1 binding model was used, and the Fit Local mode was selected to determine the association rate constant (ka), dissociation rate constant (kd), and equilibrium dissociation constant (KD).

Molecule | inhibitory effect on the enzymatic activity of the soluble recombinant CD73 protein [1] | ka [2] [M⁻¹ s⁻¹] | kd [2] [s⁻¹]
Antibody-drug conjugate 1: 900698 antibody cysteine-conjugated to SN-38 via Mc-VC-PAB-DMEDA-PEG linker, DAR about 7.8 (conjugate) VH: QVQLVESGGGLVKPGGSLRLSCAASGFTFSKYAMSWIRQAPGKGLEWVAEISSGGGYINYADSVKGRFTISRDNAKNSLYLQMNSLRAEDTAVYYCARAIYYYGSSYNYYAMDYWGQGTTVTVSS VL: DIQMTQSPSSLSASVGDRVTITCRASQDVGTAEAWYQQKPGKAPKLLIYWASTRHTGVPSRFSGSGSGTDFTLTISSLQPEDFATYYCQQYSSYPLTFGQGTKLEIK | comparable inhibitory effects | 381000 | 0.000129
900698: anti-CD73 antibody, VH SEQ ID NO: 35, VL SEQ ID NO: 34 (antibody, V domains shown, 900696, 900698 (VH); 900695, 900698 (VL)) VH: QVQLVESGGGLVKPGGSLRLSCAASGFTFSKYAMSWIRQAPGKGLEWVAEISSGGGYINYADSVKGRFTISRDNAKNSLYLQMNSLRAEDTAVYYCARAIYYYGSSYNYYAMDYWGQGTTVTVSS VL: DIQMTQSPSSLSASVGDRVTITCRASQDVGTAEAWYQQKPGKAPKLLIYWASTRHTGVPSRFSGSGSGTDFTLTISSLQPEDFATYYCQQYSSYPLTFGQGTKLEIK | comparable inhibitory effects | 147000 | 0.000104
Antibody-drug conjugate 2: 900698 antibody cysteine-conjugated to SN-38 via MP2-VC-PAB-DMEDA-PEG linker, DAR about 7.8 (conjugate) VH: QVQLVESGGGLVKPGGSLRLSCAASGFTFSKYAMSWIRQAPGKGLEWVAEISSGGGYINYADSVKGRFTISRDNAKNSLYLQMNSLRAEDTAVYYCARAIYYYGSSYNYYAMDYWGQGTTVTVSS VL: DIQMTQSPSSLSASVGDRVTITCRASQDVGTAEAWYQQKPGKAPKLLIYWASTRHTGVPSRFSGSGSGTDFTLTISSLQPEDFATYYCQQYSSYPLTFGQGTKLEIK | comparable inhibitory effects | 643000 | 0.000228
